We go through nine molecules from patent publication US11945844B2, “Taste and flavor-modifier proteins” (AMAI PROTEINS LTD., priority 2018, dated 2024).

Data set [1] relates to healthy assessors. Description: Example 1B: double-blind taste assay, sweet taste threshold in soft drink model solution. The class given is in vivo, human. As to conditions: for sweetness average score: grade 0-10; for sweetness potency simulating 1 °Bx perception: relative to sucrose. The procedure:
The sweetness potency of MNEI-based proteins described herein relative to sucrose is typically in the range of 1:700 to 1:16,000. Thus, for the sake of comparison, the MNEI-based proteins and MNEI (as a reference protein) solutions were initially diluted 1:1000 and further diluted as needed. In general, the sweetness threshold of sugar for most people in soft drinks is 0.32%-1.0%. Calculations of MNEI-based proteins and MNEI (as a reference protein concentrations were carried out accordingly. The solutions that were used in this study are detailed in Table 5. The solutions were prepared as follows: for each solution, an amount sweetener (sucrose/MNEI/Designer (modified) Protein; See Table 1 for details) was added as indicated in Table 3 and the solution was completed to 100 g with water (in order to obtain 1% sugar equivalent sweetener). 20 ml of each solution was poured into tasting cup and each sample was marked for blind testing according to Table 5. To evaluate the sweetness threshold for each one of the […] solutions, a double-blind taste assay was performed. The samples tested included MNEI, two MNEI designer proteins (DM08 and DM10), sucrose and mineral water. A series of concentrations were prepared by diluting the stock solution of proteins with mineral water (pH 6.9) shortly before the taste assay (Table 3). Five healthy assessors participated in this session, 2 men and 3 women, 30-50 years old of which 3 were trained tasters. Twenty ml samples were tested randomly, in comparison to sugar solution. Before each assay, assessors were requested to rinse their mouth with water and to eat a neutral-taste cracker until no residual taste remained. The test solution was held in the mouth for at least 10 seconds. The assessors then graded the sample according to their response between 0-10; 0-no sweet perception, 10-very sweet. The sweetness detection threshold was defined as the lowest concentration at which the taster recognized the sample as sweet. Sweetness potencies are reported relative to sucrose.

For data set [2], the system named is healthy assessors. As to the kind of experiment: Example 1C: double-blind taste assay, sweet taste threshold in solution. The class given is in vivo, human. As to conditions: for sweetness potency compatible with / simulating 1 °Bx sugar solution: relative to sucrose. As to the method:
The solutions that were used in this study are detailed in Table 4. The solutions were prepared as follows: for each solution, an amount sweetener (sucrose/MNEI/Designer Protein; See Table 1 for details) was added as indicated in Table 6 and the solution was completed to 100 g with water (in order to obtain 1% sugar equivalent sweetener). 20 ml of each solution was poured into tasting cup and each sample was marked for blind testing according to Table 6. To evaluate the sweetness threshold for each one of the […] solutions, a double-blind taste assay was performed. The samples tested included MNEI, […] ([…]), sucrose and mineral water. A series of concentrations were prepared by diluting the stock solution of proteins with mineral water (pH 6.9) shortly before the taste assay (Table 6). Six healthy assessors participated in this session, 5 men and 1 woman, 30-75 years old of which half were trained tasters The sweetness detection threshold was defined as the lowest concentration at which the taster recognized the sample as sweet. Sweetness potencies are reported relative to sucrose. Twenty ml samples were tested randomly, in comparison to sugar solution. Before each assay, assessors were requested to rinse their mouth with water and to eat a neutral-taste cracker until no residual taste remained. The test solution was held in the mouth for at least 10 seconds. The assessors then graded the sample according to their response between 0-10; 0-no sweet perception, 10-very sweet. The sweetness detection threshold was defined as the lowest concentration at which the taster recognized the sample as sweet. Sweetness potencies are reported relative to sucrose.

Data set [3] has as its system trained participants. As to the kind of experiment: Example 1D: blind testing of sweetness potency, aftertaste and lingering in comparison to sugar solution. As to conditions: for sweetness potency at 8 °BX perception, greater than sugar / sweetness threshold, greater than sugar by weight: fold over sugar. The class given is in vivo, human. The procedure:
Based on the optimization above, the sweetness potency, the aftertaste and the lingering effect of DM08 and DM09 were tested as compared with MNEI and additional sweeteners as shown in Table 7. Test method included blind testing in 6 trained participants of each one of the proteins in comparison to sugar solution.

The subject of data set [4] is participants. As to the kind of experiment: Example 1D: blind comparison of combinations at 8.0° BX perception with 3.0° BX sugar addition. The class given is in vivo, human. As to conditions: 8.0 °BX perception (3.0° BX sugar addition). As to the method:
Further combinations were tested in blind comparison of the various combinations to sugar solution in 6 participants.

The conditions of data set [5]: single substitution in MNEI, Zheng et al; cited from earlier work.
For data set [6] the following is noted: single substitution in MNEI, Zheng et al; cited from earlier work. The source holds these as a separate data set.
A short description of data set [7]: Structural thermal stability (Tm). It counts as physicochemical. The source says: The term “structural thermal stability” or “thermal stability” as used herein refers to the ability of the modified protein to retain its 3D structure at temperatures above that of the reference protein. The 3D structural stability of a protein can be measured by any method known in the art, such as Circular Dichroism (CD), or thermal shift assays such as Differential Scanning Fluorimetry (DSF) or Differential Scanning calorimetry (DSC). The 3D structure of a protein may have an effect on the function of the protein.

The nature of data set [8]: Sweetness potency relative to MNEI (Table 10). The class given is in vivo. The settings on record: MNEI = 1.0.
Data set [9] in a line: Shelf life stability. The class given is physicochemical. As to conditions: at 4° C. The procedure:
In some embodiments the modified protein has improved shelf life relative to the reference protein. Improved shelf life refers to no sensed change in the sweetness (function) or physical deterioration of a product comprising the composition (e.g. color change, phase separation etc.) after exposure of the product to any temperature up to 150° C., at times, to any temperature between 4° C. to 150°, or to 100°.

Setting [10] is: dilution factor 1:500, grade 0-10.
[11] abbreviates: dilution factor 1:1,000, grade 0-10.
Where [12] appears, read: dilution factor 1:2,000, grade 0-10.

`OC[C@H]1O[C@@](CO)(O[C@H]2O[C@H](CO)[C@@H](O)[C@H](O)[C@H]2O)[C@@H](O)[C@@H]1O` [Sucrose, reference compound]: the sweetness average score in data set [1] (0.5% sucrose solution, 5 assessors) is 0.63±0.6. In [1] (1% sucrose solution, 5 assessors), this molecule showed a sweetness average score of 1.25±0.9. Further, in data set [2] (0.5% sucrose solution, grade 0-10, 6 assessors), the sweetness average score is given as 1.9±0.9. For the same molecule, the sweetness average score in data set [2] (1% sucrose solution, grade 0-10, 6 assessors) was determined as 3.8±1.9. In addition, the Estimated threshold concentration in [3] (ratio relative to sucrose, 6 trained participants) is given as 1. In data set [3] (single sweetener (Table 7)), the “Additional After Taste & Notes” value is given as “No”, the Late onset entry is listed as “No” and the “Lingering After Taste” value is “No”. In data set [4], the “After Taste” value was “No”, the Late onset result is “No” and the Lingering result is on record as “No”.

B1: E2N: MNEI with amino acid substitution E2N, CPD model; also reported by Zheng et al (protein)
chain: GNWEIIDIGPFTQNLGKFAVDEENKIGQYGRLTFNKVIRPCMKKTIYENEGFREIKGYEYQLYVYASDKLFRADISEDYKTRGRKLLRFNGPVPPP
modifications: Monelin MNEI
notes: MNEI with amino acid substitution E2N, CPD model; also reported by Zheng et al
For the molecule B1, the improved sweetness in data set [5] was 3 fold. Also, the stability result in [6] is on record as “slight reduced stability”.

B2: DM09: modified MNEI protein, SEQ ID NO:17, E2N/E23A/Y65R (protein)
chain: GNWEIIDIGPFTQNLGKFAVDEANKIGQYGRLTFNKVIRPCMKKTIYENEGFREIKGYEYQLYVRASDKLFRADISEDYKTRGRKLLRFNGPVPPP
modifications: DM9
As for B2, in data set [7], the “Tm (° C.) Structural thermal stability” value turned out to be 81 °C. Also, in data set [7] (summary of Table 10), the “melting temperature compared with MNEI” value is given as “at least equal or improved”. Further, the “Sweetness Potency relative to MNEI” value in data set [8] is reported as 7.5. Also, the shelf life stability result in data set [9] is listed as “At least 6 months”. Besides, in data set [3], the “sweetness potency at 8 °BX perception, greater than sugar” value is 4,000 and the “sweetness threshold, greater than sugar by weight” value was 15,000.

B3: DM03: modified MNEI protein, SEQ ID NO: 15, E2N/I8T/N14K/E23A/Q28K/R31T/N35T/C41T/Y65K/S67N/R84L (protein)
chain: GNWEIIDTGPFTQKLGKFAVDEANKIGKYGTLTFTKVIRPTMKKTIYENEGFREIKGYEYQLYVKANDKLFRADISEDYKTRGLKLLRFNGPVPPP
modifications: DM3
Regarding B3, the “Tm (° C.) Structural thermal stability” value in data set [7] was determined as 81.5 °C. Besides, the “Sweetness Potency relative to MNEI” value in data set [8] is recorded as “Not sweet at all”.

B4: DM08: modified MNEI protein, SEQ ID NO:16, E2N/E23V/Y65K (protein)
chain: GNWEIIDIGPFTQNLGKFAVDEVNKIGQYGRLTFNKVIRPCMKKTIYENEGFREIKGYEYQLYVKASDKLFRADISEDYKTRGRKLLRFNGPVPPP
modifications: DM8
With B4, the “sweetness potency simulating 1 °Bx perception” value in [1] is “about 10,000”. For the same molecule, the “Tm (° C.) Structural thermal stability” value in data set [7] amounted to 81 °C. In addition, in [8], the “Sweetness Potency relative to MNEI” value came to 6.0. For the same molecule, the shelf life stability entry in data set [9] is “At least 6 months”. For the same molecule, in [3], the “sweetness potency at 8 °BX perception, greater than sugar” value is on record as 3,500 and the “sweetness threshold, greater than sugar by weight” value is 10,000. Besides, in data set [3] (single sweetener (Table 7)), the “Additional After Taste & Notes” value is reported as “Low bitterness” and the “Lingering After Taste” value was “Sweet lingering”.

B5: DM10: modified MNEI protein, SEQ ID NO: 18, Q28K/R31T/N35T/S67N (protein)
chain: GEWEIIDIGPFTQNLGKFAVDEENKIGKYGTLTFTKVIRPCMKKTIYENEGFREIKGYEYQLYVYANDKLFRADISEDYKTRGRKLLRFNGPVPPP
modifications: DM10
As for B5, the “sweetness potency simulating 1 °Bx perception” value in data set [1] was “about 1,000”. Besides, the “Tm (° C.) Structural thermal stability” value in data set [7] is 71 °C. The “Sweetness Potency relative to MNEI” value in data set [8] amounted to 0.5.

B6: DM11: modified MNEI protein, SEQ ID NO: 19, I8T/N14K/C41T/R84L (protein)
chain: GEWEIIDTGPFTQKLGKFAVDEENKIGQYGRLTFNKVIRPTMKKTIYENEGFREIKGYEYQLYVYASDKLFRADISEDYKTRGLKLLRFNGPVPPP
modifications: DM11
Take B6: the “Tm (° C.) Structural thermal stability” value in data set [7] was 69 °C. For the same molecule, the figures for the sweetness average score in data set [2] (setting [10]), in data set [2] (setting [11]) and in data set [2] (setting [12]) were 0.0±0.0, 0.3±0.8 and 0.4±0.9, respectively. In addition, the “sweetness potency compatible with / simulating 1 °Bx sugar solution” value in data set [2] is “below 500”. Moreover, the “Sweetness Potency relative to MNEI” value in data set [8] turned out to be 0.2.

B7: DM12: modified MNEI protein, SEQ ID NO: 20, I8T/C41T as printed in Table 4 (protein)
chain: GEWEIIDTGPFTQNLGKFAVDEENKIGQYGRLTFNKVIRPTMKKTIYENEGFREIKGYEYQLYVYASDKLFRADISEDYKTRGLKLLRFNGPVPPP
modifications: DM12
For B7, in [7], the “Tm (° C.) Structural thermal stability” value amounted to 65 °C. Besides, the sweetness average score in data set [2] (all dilution factors (1:500, 1:1,000, 1:2,000), no noticeable dose response) is reported as approximately 1.0. For the same molecule, the “Sweetness Potency relative to MNEI” value in data set [8] worked out at 0.5.

B8: MNEI: single chain Monellin (MNEI) reference protein, SEQ ID NO:5, 96 amino acids (protein)
chain: GEWEIIDIGPFTQNLGKFAVDEENKIGQYGRLTFNKVIRPCMKKTIYENEGFREIKGYEYQLYVYASDKLFRADISEDYKTRGRKLLRFNGPVPPP
modifications: Monelin MNEI
As for B8, the sweetness average score in [1] (dilution factor 1:1,000) came out at 2.2±1.0; in data set [1] (dilution factor 1:2,000) it was 0.98±0.4; in data set [1] (dilution factor 1:4,000), 0.68±0.2; in data set [2] (setting [10]), 4.7±3.2; in [2] (setting [11]), 2.5±1.4; in data set [2] (setting [12]), 1.0±0.7. Also, the “sweetness potency simulating 1 °Bx perception” value in data set [1] is on record as “about 2,000”. Also, the “Tm (° C.) Structural thermal stability” value in [7] amounted to 69 °C. In addition, the “sweetness potency compatible with / simulating 1 °Bx sugar solution” value in [2] is reported as “about 1,000”. Besides, the “Sweetness Potency relative to MNEI” value in data set [8] stood at 1.0. Also, the shelf life stability result in [9] is recorded as “At least 12 months”. Besides, in [3] (single sweetener (Table 7)), the “Lingering After Taste” value is given as “Sweet lingering”.
